These results are taken from patent US20110142842A1 (MEDINNOVA, published 2011).

The target of the assay is HLA-A*0201 (human, UniProt A*02:01). Briefly: REVEAL MHC binding assay (ProImmune).

With WLSAAPTSL [Peptide ID 102 WLSAAPTSL (CD33)], the “% Pass/fail control” value is 207 % of pass/fail control. The figure for LMGTLIAKV [Peptide ID 83 LMGTLIAKV (HA-1)] is 316 % of pass/fail control. The figure for KMIMNSLSL [Peptide ID 96 KMIMNSLSL (CD20)] is 213 % of pass/fail control; for ELSEDSSNV [Peptide ID 103 ELSEDSSNV (CD18)] it is 139 % of pass/fail control. For VLWPRACWT [Peptide ID 100 VLWPRACWT (CD50)] the value was 139 % of pass/fail control. For NVAELLHQV [Peptide ID 101 NVAELLHQV (ZAP-70)], the “% Pass/fail control” value is 200 % of pass/fail control.

On to LVAPRFLEV [Peptide ID 85 LVAPRFLEV (CD50)], for which the “% Pass/fail control” value is 340 % of pass/fail control.

Take RMPWYHSSL [Peptide ID 95 RMPWYHSSL (ZAP-70)]: the “% Pass/fail control” value is 85.6 % of pass/fail control.

Take LMSFFILLL [Peptide ID 104 LMSFFILLL (CD53)]: the “% Pass/fail control” value was 161 % of pass/fail control. Turning to YLGYTVTWL [Peptide ID 93 YLGYTVTWL (CD11a)], the “% Pass/fail control” value was 239 % of pass/fail control. Turning to HLLGPWLLL [Peptide ID 94 HLLGPWLLL (CD22)], the “% Pass/fail control” value is 212 % of pass/fail control. For YLALGDQML [Peptide ID 91 YLALGDQML (CD50)] the value was 197 % of pass/fail control. The figure for FLLLTISLL [Peptide ID 88 FLLLTISLL (CD52)] is 302 % of pass/fail control; for TLWQLVEYL [Peptide ID 97 TLWQLVEYL (ZAP-70)] it is 198 % of pass/fail control. Take VLLVVLLVV [Peptide ID 90 VLLVVLLVV (CD5)]: the “% Pass/fail control” value was 71.5 % of pass/fail control. For LLWAGALAM [Peptide ID 86 LLWAGALAM (CD33)] the value was 321 % of pass/fail control; for GMDRYLIYV [Peptide ID 9 GMDRYLIYV (CD18)], 170 % of pass/fail control; for FLLGLGLGV [Peptide ID 8 FLLGLGLGV (CD7)], 202 % of pass/fail control. In the case of KLKDLFTEL [Peptide ID 98 KLKDLFTEL (CD11a)], the “% Pass/fail control” value is 171 % of pass/fail control. Consider GMVFSLLQV [Peptide ID 99 GMVFSLLQV (CD127)], for which the “% Pass/fail control” value is 175 % of pass/fail control. For VLLRWEEEL [Peptide ID 89 VLLRWEEEL (CD50)], the “% Pass/fail control” value was 184 % of pass/fail control. In the case of LIQPFMFRL [Peptide ID 84 LIQPFMFRL (MPO)], the “% Pass/fail control” value was 311 % of pass/fail control. For LLLTNTFGA [Peptide ID 92 LLLTNTFGA (CD11a)] the value was 196 % of pass/fail control.
